Assay results: US20240166765A1 (ICONIC THERAPEUTICS, published 2024)
Substitutions are numbered along the chain they refer to. Like-named read-outs stand apart in the source and are kept apart here.

T1: h1-107_r (human/rat chimera)
T1 construct: on HEK293 cells
T1 chain: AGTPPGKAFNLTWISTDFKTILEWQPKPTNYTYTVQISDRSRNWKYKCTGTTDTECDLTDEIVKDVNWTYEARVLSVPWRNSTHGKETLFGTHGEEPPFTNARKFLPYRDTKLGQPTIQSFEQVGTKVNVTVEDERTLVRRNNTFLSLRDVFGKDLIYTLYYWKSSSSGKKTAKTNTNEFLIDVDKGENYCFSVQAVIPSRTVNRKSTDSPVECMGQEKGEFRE

T2: hTF_N171H_T197K (human, UniProt P13726 33-251)
T2 construct: on HEK293 cells
T2 chain: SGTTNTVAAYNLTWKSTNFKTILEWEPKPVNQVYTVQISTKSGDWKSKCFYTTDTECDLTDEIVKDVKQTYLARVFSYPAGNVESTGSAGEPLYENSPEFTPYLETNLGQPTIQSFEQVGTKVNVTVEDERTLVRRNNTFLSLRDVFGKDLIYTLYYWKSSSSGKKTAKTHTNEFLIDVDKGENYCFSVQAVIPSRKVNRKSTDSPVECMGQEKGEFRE

T3: pig TF ECD-His (pig TF-His) protein (pig (Sus scrofa))
T3 construct: Extracellular domain with a C-terminal TG-His6 tag, used as analyte in Biacore; also called pTF
T3 chain: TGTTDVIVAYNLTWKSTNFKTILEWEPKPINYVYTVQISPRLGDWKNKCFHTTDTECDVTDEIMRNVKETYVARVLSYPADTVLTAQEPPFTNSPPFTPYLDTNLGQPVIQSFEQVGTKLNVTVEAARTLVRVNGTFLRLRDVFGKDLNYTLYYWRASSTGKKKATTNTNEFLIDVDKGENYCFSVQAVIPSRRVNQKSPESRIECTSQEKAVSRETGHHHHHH

T4: cynomolgus TF ECD-His6 (cynomolgus monkey (Macaca fascicularis))
T4 construct: made in Expi293 cells; also called TF-His; cTF
T4 chain: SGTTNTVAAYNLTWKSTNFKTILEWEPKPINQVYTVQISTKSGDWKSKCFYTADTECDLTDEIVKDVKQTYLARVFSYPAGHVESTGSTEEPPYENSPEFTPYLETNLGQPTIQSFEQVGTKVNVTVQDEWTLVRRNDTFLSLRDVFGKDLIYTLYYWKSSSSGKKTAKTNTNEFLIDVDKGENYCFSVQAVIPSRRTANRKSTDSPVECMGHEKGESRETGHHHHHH

T5: hTF_K149N (human, UniProt P13726 33-251)
T5 construct: the entry already holds K149N; on transfected HEK293 cells; not shown: transmembrane and cytoplasmic part of the construct expressed on HEK293 cells
T5 chain: T2 chain with K149N, H171N, K197T

T6: hTF_N171H_T197K (human, UniProt P13726 33-251)
T6 construct: the entry already holds N171H and T197K; on transfected HEK293 cells
T6 chain: T2 chain

B1: 29E (antibody, human IgG1, V domains shown)
VH: QVQLVESGGGVVQPGRSLRLSCAASGFTFRSYGMHWVRQAPGKGLEWVAVITYDGINKYYADSVEGRFTISRDNSKNTLYLQMNSLRAEDTAVYYCARDGVYYGVYDYWGQGTLVTVSS
VL: not shown
notes: Human IgG1
B2: 1F (antibody, human IgG1, V domains shown)
VH: EVQLLESGGGLVQPGGSLRLSCAASGFTFSDYAMGWVRQAPGKGLEWVSTISGSGGLTYYADSVKGRFTISRDNSKNTLYLQMNSLRAEDTAVYYCAKAPYGYYMDVWGKGTTVTVSS
VL: not shown
notes: Human IgG1
B3: anti-TF antibody 43D8 (antibody, human IgG1, kappa, V domains shown)
VH: QVQLQQWGAGLLKPSETLSLTCAVYGGSLSGYYWSWIRQPPGKGLEWIGEIGASGSTRYNPSLKSRVTISVDTSKNQFSLKLSSVTAADTAVYYCARDTPYYYEGGYYYYMDVWGKGTTVTVSS
VL: EIVLTQSPGTLSLSPGERATLSCRASQSVSSSFLAWYQQKPGQAPRLLIYGAYSRATGIPDRFSGSGSGTDFTLTISRLEPEDFAVYYCQQAGVVPYTFGGGTKVEIKR
notes: Human IgG1
B4: anti-TF antibody 25G9 (antibody, human IgG1, kappa, V domains shown)
VH: QVQLVQSGAEVKKPGASVKVSCKASGYTFRSYGISWVRQAPGQGLEWMGWVAPYSGNTNYAQKLQGRVTMTTDTSTSTAYMELRSLRSDDTAVYYCARDAGTYSPYGYGMDVWGQGTTVTVSS
VL: DIQMTQSPSTLSASVGDRVTITCQASQSIDSWLAWYQQKPGKAPKLLIYSASYLESGVPSRFSGSGSGTEFTLTISSLQPDDFATYYCQRFQSLPPFTFGGGTKVEIKR
notes: Human IgG1
B5: 25G1 (antibody, human IgG1, kappa, V domains shown)
VH: B4 VH
VL: B4 VL with Q24R, Q27H, S50K, R90L
notes: human IgG1
B6: 25A (antibody, human IgG1, V domains shown)
VH: B4 VH with R30D, S31V, V51I, S55N, Y106F
VL: DIQMTQSPSTLSASVGDRVTITCRASQSISSWLAWYQQKPGKAPKLLIYKASSLESGVPSRFSGSGSGTEFTLTISSLQPDDFATYYCQQFQSLPPFTFGGGTKVEIK
notes: human IgG1
B7: 25A3 (antibody, human IgG1, kappa, V domains shown)
VH: B4 VH with R30D, S31V, V51I, Y106F
VL: B4 VL with D30N, S31N, S50K, S52Y, Y53N, R90L
notes: human IgG1
B8: 25G9 (antibody, human IgG1, kappa, V domains shown)
VH: B4 VH
VL: B4 VL
notes: human IgG1
B9: 54E (antibody, human IgG1, V domains shown)
VH: QVQLVQSGAEVKKPGASVKVSCKASGYTFANYYMHWVRQAPGQGLEWMGIINPSGGITVYAQKFQGRVTMTRDTSTSTVYMELSSLRSEDTAVYYCARGGSKVAALAFDIWGQGTMVTVSS
VL: DIQMTQSPSSLSASVGDRVTITCQASQDISNSLNWYQQKPGKAPKLLIYDASNLETGVPSRFSGSRSGTDFTFTISSLQPEDIATYYCQQYNFHPLTFGGGTKVEIK
notes: Human IgG1

Key:
rTF (rat TF) [1] = molecular target: T7, rTF (rat TF) (rat, UniProt P42533 29-252); assay: live cell staining, flow cytometry
T7 construct: Expressed on the surface of transfected HEK293 cells

h1-107_r = molecular target: T1, h1-107_r; assay: live cell staining, flow cytometry
h1-77_r = molecular target: T8, h1-77_r (human/rat chimera); assay: live cell staining, flow cytometry
T8 construct: Human TF with ECD residues 1-77 replaced by the rat segment; on HEK293 cells

h78-107_r.v2 = molecular target: T9, h78-107_r.v2 (human/rat chimera); assay: live cell staining, flow cytometry
T9 construct: on HEK293 cells

hTF = molecular target: T10, hTF (human, UniProt P13726 33-251); assay: live cell staining, flow cytometry
T10 construct: also called human TF; human Tissue Factor

rTF (rat TF) [2] = molecular target: T7, rTF (rat TF); assay: live cell staining, flow cytometry; remark: listed apart in the source
r141-194_h = molecular target: T11, r141-194_h (rat/human chimera, UniProt P42533 29-252); assay: live cell staining, flow cytometry
T11 construct: on HEK293 cells

hTF_N171H_T197K [3] = molecular target: T2, hTF_N171H_T197K; assay: live cell staining, flow cytometry
[4] = molecular target: human Tissue Factor (hTF), endogenously expressed on human TF-positive cells (human, UniProt P13726 33-295); assay: cell-based or functional assay
[5] = molecular target: T3, pig TF ECD-His (pig TF-His) protein; assay: Biacore, antibody captured by anti-human IgG on CM5 chip, pig TF-His as analyte, 1:1 model
human TF ECD-His6 [6] = molecular target: T12, human TF ECD-His6 (human, UniProt P13726 33-251); assay: BLI (ForteBio Octet)
T12 construct: made in Expi293 cells; the entry holds the ECD with the C-terminal TG-His6; also called TF-His; hTF

cynomolgus TF ECD-His6 [7] = molecular target: T4, cynomolgus TF ECD-His6; assay: BLI (ForteBio Octet)
mouse TF ECD-His6 [8] = molecular target: T13, mouse TF ECD-His6 (mouse, UniProt P20352 29-251); assay: BLI (ForteBio Octet)
T13 construct: made in Expi293 cells; also called TF-His; mTF

cynomolgus TF ECD-His6 [9] = molecular target: T4, cynomolgus TF ECD-His6; assay: SPR (Biacore), antibody on chip, TF-His titrated
mouse TF ECD-His6 [10] = molecular target: T13, mouse TF ECD-His6; assay: SPR (Biacore), antibody on chip, TF-His titrated
[11] = molecular target: rTF (rat TF) on HEK293 cells (rat, UniProt P42533 29-252); assay: live cell staining of transfected HEK293, flow cytometry
hTF_K149N = molecular target: T5, hTF_K149N; assay: as above
hTF_N171H_T197K [12] = molecular target: T6, hTF_N171H_T197K; assay: as above
human TF ECD-His6 [13] = molecular target: T12, human TF ECD-His6; assay: SPR (Biacore), antibody on chip, TF-His titrated
h159-219_r = molecular target: T14, h159-219_r (human/rat chimera); assay: live cell staining, flow cytometry
T14 construct: on HEK293 cells

Binder	Percent antibody binding to TF construct relative to hTF (rTF (rat TF) [1]) [%]	Percent antibody binding to TF construct relative to hTF (h1-107_r) [%]	Percent antibody binding to TF construct relative to hTF (h1-77_r) [%]	Percent antibody binding to TF construct relative to hTF (h78-107_r.v2) [%]	Percent antibody binding to TF construct relative to hTF (hTF) [%]	Percent antibody binding to TF construct relative to hTF (rTF (rat TF) [2]) [%]	Percent antibody binding to TF construct relative to hTF (r141-194_h) [%]	Percent antibody binding to TF construct relative to hTF (hTF_N171H_T197K [3]) [%]	Kd (human TF ECD-His6 [6]) [nM]	Kd (cynomolgus TF ECD-His6 [7]) [nM]	Kd (mouse TF ECD-His6 [8]) [nM]	Kd (cynomolgus TF ECD-His6 [9]) [nM]	binding result [11]	binding result (hTF_K149N)	binding result (hTF_N171H_T197K [12])	Kd (human TF ECD-His6 [13]) [nM]	further results
B1	0	0	0	0	100	0	0	98									
B2	0	0	0	0	100	0	0	83									
B3																	% GM-CSF, 2.56 nM antibody, MDA-MB-231 cells + FVIIa [4]: 57%; % GM-CSF, 6.4 nM antibody, MDA-MB-231 cells + FVIIa [4]: 24%; % GM-CSF, 16 nM antibody, MDA-MB-231 cells + FVIIa [4]: 11%; % GM-CSF, 40 nM antibody, MDA-MB-231 cells + FVIIa [4]: 11%; % GM-CSF, 100 nM antibody, MDA-MB-231 cells + FVIIa [4]: 12%; Kd [5]: 12.9 nM
B4																	% GM-CSF, 2.56 nM antibody, MDA-MB-231 cells + FVIIa [4]: 60%; % GM-CSF, 6.4 nM antibody, MDA-MB-231 cells + FVIIa [4]: 34%; % GM-CSF, 16 nM antibody, MDA-MB-231 cells + FVIIa [4]: 26%; % GM-CSF, 40 nM antibody, MDA-MB-231 cells + FVIIa [4]: 26%; % GM-CSF, 100 nM antibody, MDA-MB-231 cells + FVIIa [4]: 25%; Kd [5]: 3.31 nM
B5									3.97	4.99	34.2	0.78	no binding (tested: 15 µg/ml (100 nM))	no binding	no binding		Kd (mouse TF ECD-His6 [10]): 5.4 nM
B6									8.45	7.65	263	5.42	no binding (tested: 15 µg/ml (100 nM))	no binding	no binding	6.2	
B7									1.67	1.36	131	0.21	no binding (tested: 15 µg/ml (100 nM))		no binding	0.36	
B8									35.8	42.9	9.16	16.4	no binding (tested: 15 µg/ml (100 nM))	no binding	no binding	13.3	Kd (mouse TF ECD-His6 [10]): 2.9 nM
B9	0	0	0	62	100	0	0	89									Percent antibody binding to TF construct relative to hTF (h159-219_r): 142%
